Reference: patent US9835633

Tested on: human apolipoprotein E4
Sequence (chain, as listed by the source): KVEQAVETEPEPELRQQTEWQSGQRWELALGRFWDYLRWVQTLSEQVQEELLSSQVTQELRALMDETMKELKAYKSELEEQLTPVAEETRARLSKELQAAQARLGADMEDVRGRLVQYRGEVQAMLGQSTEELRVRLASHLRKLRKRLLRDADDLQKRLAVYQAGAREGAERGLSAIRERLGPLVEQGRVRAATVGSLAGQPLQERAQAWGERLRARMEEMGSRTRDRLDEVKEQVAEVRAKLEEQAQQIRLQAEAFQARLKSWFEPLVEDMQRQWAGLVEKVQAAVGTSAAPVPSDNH

Substance: PCSK1 (Protein Convertase, Subtilisin/Kexin-Type-1), overexpressed by transient transfection
- apoE fragmentation in NSE-apoE4 primary neurons overexpressing the enzyme: A mild increase of apoE fragmentation was also detected in NSE-apoE4 primary neurons overexpressing PCSK1 or PCSK2

Substance: PCSK2 (Protein Convertase, Subtilisin/Kexin-Type-2), overexpressed by transient transfection
- apoE fragmentation in NSE-apoE4 primary neurons overexpressing the enzyme: A mild increase of apoE fragmentation was also detected in NSE-apoE4 primary neurons overexpressing PCSK1 or PCSK2
